# In patent US5786145A, “Oligonucleotide competitors for binding of HIV RRE to REV protein and assays for screening inhibitors of this binding” (Medical Research Council, priority 1995, dated 1998):
# “Also recorded” adds a separate entry of the source.
# System: rev protein
# Test: Saturation filter binding of rev to labelled RNA transcripts
# Set-up: species or system HIV-1
# Conditions: Table I; 10 nM rev, 50 mM KCl
# Method: Rev protein was expressed and purified as described (33) or further purified by chromatography on Heparin-Sepharose. Rev was applied to Heparin columns in a buffer containing 200 mM NaCl/50mM Tris-HCl pH8.0/1 mM DTT/0.1 mM EDTA 0.1% Triton X-100 and eluted in buffer containing 2M NaCl. After gel filtration on Superose 6 (prep grade) columns equilibrated with 200 mM NaCl/50 mM Tris-HCl pH8.0/1 mM DTT/0.1 mM EDTA, the rev protein appeared homogeneous on SDS-polyacrylamide gels and free of RNA contaminants. Rev concentrations were determined by amino acid analysis of the purified protein.
# DNA inserts containing RRE-related sequences were cloned between the EcoRI (5') and HindIII (3') sites of pGEM 1, either by cloning PCR products or by cloning annealed pairs of synthetic oligonucleotides. RNA transcripts for binding experiments were prepared by transcription of HindIII cut plasmids using T7 RNA polymerase and purified by gel electrophoresis. These transcripts carry a 5' extension of 15 nucleotides contributed by the vector and an extra A residue at the 3' end from the HindIII site, as described above.
# For filter binding assays, each reaction mixture contained 20 pg of uniformly labelled RNA probe (approximately 500 cpm/pg RNA), […] sonicated salmon sperm DNA, […] yeast tRNA, 40 units RNasin (Promega) in […] TK buffer (43 mM Tris-HCl pH8.0, 50 mM KCl). Incubation was at 4° C. for 15 minutes in the presence of 0 to 10 nM purified rev protein. To measure binding, each reaction mixture was applied under gentle vacuum to a 0.45 um Millipore filter which had been pre-wetted with TK buffer. The filters were washed with […] TK buffer, dried, and radioactivity counted by liquid scintillation.
# Filter binding assays contained 20 pg uniformly labelled RNA probe (500 dpm per pg RNA), 1 μg salmon sperm DNA, 0.45 μg yeast tRNA and 40 units RNasin (Promega) in 500 μl buffer containing 43 mM Tris-HCl pH 8.0, 50 mM KCl. Mutations in the purine-rich "bubble" sequence (numbered as shown in FIG. 2) were introduced into the R33 stem-loop structure (FIG. 3d) by site-directed mutagenesis.
row,Molecule,% RNA bound (10 nM rev) [%]
1,R36 (GGGAGACCGGAAUUCUGGGCGCAGUGUCAUUGACGCUGCGCAGAAUUCCGGCA; chemistry not given here),4
2,R37 (GGGAGACCGGAAUUCUAAACGCAGUGUCAUUGACGCUGCGGUAUAGAAUUCCGGCA; chemistry not given here),5

# Same assay, conditions: saturation filter binding of T7 transcripts; read-out: Kd for rev binding
row,Molecule,Kd [nM]
1,R19: transcript containing RRE sequences 33 to 66 (GGGAGACCGGAAUUCUGGGCGCAGUGUCAUUGACGCUGACGGUACAGGCA; unmodified RNA),1 to 3
2,R22: residue A56 is deleted from R20 (GGGAGACCGGAAUUCUGGGCGCAGUGUCAUUGACGCUGCGGUACAGGCA; chemistry not given here),1 to 3
3,R38: stem-loop structure C39 to A56 replaced by the stable loop sequence CUUCGG (GGGAGACCGGAAUUCUGGGCGCUUCGGCGGUACAGA; chemistry not given here),1 to 3

# Same assay, conditions: saturation filter binding, 0 to 10 nM rev
row,Molecule,"rev binding, result in words"
1,R29: residues altered in the apex of the loop to give the anti-sense sequence (GGGAGACCGGAAUUCUGGGCGCAGUGUCAAUGACGCUGACGGUACAGGCA; chemistry not given here),normal rev binding activity
2,R30: base pairing in the upper stem structure altered to give the anti-sense sequence (GGGAGACCGGAAUUCUGGGCGCAGCGUCAUUGACACUGCGGUACAGGCA; chemistry not given here),normal rev binding activity
3,R36 (GGGAGACCGGAAUUCUGGGCGCAGUGUCAUUGACGCUGCGCAGAAUUCCGGCA; chemistry not given here),loss of rev binding
4,R37 (GGGAGACCGGAAUUCUAAACGCAGUGUCAUUGACGCUGCGGUAUAGAAUUCCGGCA; chemistry not given here),abolished specific rev binding
5,"1-96: RRE fragment 1-96 T7 transcript (nucleic acid, unmodified RNA, RRE fragment 1-96 T7 transcript) GGGAGACCGGAAUUCCCUUGGGUUCUUGGGAGCAGCAGGAAGCACUAUGGGCGCAGUGUCAUUGACGCUGACGGUACAGGCCAGACAAUUAUUGUCUGGUAUAGUGCAACA",same affinity as the full-length RRE sequence
6,"26-92: RRE fragment 26-92 T7 transcript (nucleic acid, unmodified RNA, RRE fragment 26-92 T7 transcript) GGGAGACCGGAAUUCAGCACUAUGGGCGCAGUGUCAUUGACGCUGACGGUACAGGCCAGACAAUUAUUGUCUGGUAUAGUGCA",same affinity as the full-length RRE sequence; also recorded: Identical binding behaviour
7,"26-72: RRE fragment 26-72 T7 transcript (nucleic acid, unmodified RNA, RRE fragment 26-72 T7 transcript) GGGAGACCGGAAUUCAGCACUAGGGCGCAGUGUCAUUGACGCUGAGGGUACAGGCCAGACAAUUAUA",does not bind rev

# System: rev protein
# Test: Competition filter binding against 32P-labelled R7 (FIGS. 13, 17)
# Set-up: species or system HIV-1
# Conditions: 1.5 nM labelled R7, 24 nM rev, 0-60 nM competitor
# Method: In these experiments, uniformly ^32 P-labelled R7 (1.5 nM) was competed against 0-60 nM unlabelled competitor RNA in the presence of 24 nM rev protein.
# The mixtures for competition binding (0.5 ml) included 1.5 nM ^32 P-labelled R7 (ca. 20,000 cpm), 24 nM rev protein, 1.5 ug/ml calf thymus DNA, 0.67 ug/ml yeast rRNA, varying concentrations (0-60 nM) of unlabelled competitor RNA and 80 units/ml RNasin in TK buffer (50 mM Tris-HCl (pH7.9) and 20 mM KCl). Binding was allowed to take place for more than 15 min on ice, and each mixture was passed through a Millipore GS filter (a 2.5 cm disk with a pore size of 0.22 um) prewashed twice with 0.6 ml of ice-cold TK buffer. The filter was washed with 0.6 ml of cold TK buffer and dried. The radioactivity retained on the filter was counted by liquid scintillation, and the results were plotted on a graph (FIG. 13).
row,Molecule,"competition for rev binding against labelled R7, result in words"
1,"RBC2-6X: only two oligonucleotides annealed, containing all sequences from the bubble region (chain 1 GCACUAUGGGCGCAGC; chain 2 GCUGCGGUACAGGCCAGA; chemistry not given here)",not sufficiently stable to form an effective rev binding site
2,"RBC4: chemically synthesized RNA duplex, purine-rich bubble with 4 base pairs in the stem on each side (chain 1 UGUGGGCGCA; chain 2 UGCGGUACAC; RNA, backbone not given here)",no competitive binding abilities
3,"RBC5: chemically synthesized RNA duplex, purine-rich bubble with 5 base pairs on each side (chain 1 GUGUGGGCGCAG; chain 2 CUGCGGUACACA; RNA, backbone not given here)",less
4,"TWJ-C: three annealed synthetic oligoribonucleotides forming bubble stabilized by three-way junction; U85 replaced by C (chain 1 GCACUAUGGGCGCAGC; chain 2 GCUGCGGUACAGGCCAGA; chain 3 UCUGGCAUAGUGC; RNA, backbone not given here)",compete for rev binding with the same affinity
5,"TWJ-U: three annealed synthetic oligoribonucleotides forming three-way junction; authentic HIV-1ARV2 sequence with G:U base pair (chain 1 GCACUAUGGGCGCAGC; chain 2 GCUGCGGUACAGGCCAGA; chain 3 UCUGGUAUAGUGC; RNA, backbone not given here)",compete for rev binding with the same affinity

# Same assay, conditions: 1.5 nM labelled R7, 24 nM rev, 0-60 nM competitor; listed as RBC2,6X
row,Molecule,"competition for rev binding against labelled R7, result in words"
1,"RBC2-6X: only two oligonucleotides annealed, containing all sequences from the bubble region (chain 1 GCACUAUGGGCGCAGC; chain 2 GCUGCGGUACAGGCCAGA; chemistry not given here)",unable to compete effectively

# Molecular target: T1, HIV-1 Rev (Human immunodeficiency virus 1, UniProt P04618 P04618:1-116)
# Test: filter; non-specific binding only
# Conditions: tags: none stated; heparin-Sepharose and Superose 6 purified; chain copies: oligomer (tetramer likely; about 4 per RBC6, 6-8 per full-length RRE at 50 mM KCl) stated; label: 32P uniform
row,Molecule,binding signal [% RNA bound at 10 nM rev]
1,"R49 (ssRNA, [none]) RNA: GGGAGACCGGAAUUCUGGGCGCAGUGUCAUUGACGCUGCGUACAGAAUUCCGGCA",2
2,"R45 (ssRNA, [none]) RNA: GGGAGACCGGAAUUCUGGGCGCAGUGUCAUUGACGCUGCGGACAGAAUUCCGGCA",6
3,"R46 (ssRNA, [none]) RNA: GGGAGACCGGAAUUCUGGGCGCAGUGUCAUUGACGCUGCGGUCAGAAUUCCGGCA",1
4,"R58 (ssRNA, [none]) RNA: GGGAGACCGGAAUUCUGGGCGCAGUGUCAUUGACGCUGCGAUACAGAAUUCCGGCA",6
5,"R53 (ssRNA, [none]) RNA: GGGAGACCGGAAUUCUGGGCGCAGUGUCAUUGACGCUGCGGUGCAGAAUUCCGGCA",5
6,"R47 (ssRNA, [none]) RNA: GGGAGACCGGAAUUCUGAGCGCAGUGUCAUUGACGCUGCGGUACAGAAUUCCGGCA",6
7,"R40 (ssRNA, [none]) RNA: GGGAGACCGGAAUUCUCGGCGCAGUGUCAUUGACGCUGCGGUAGAGAAUUCCGGCA",3
8,"R56 (ssRNA, [none]) RNA: GGGAGACCGGAAUUCUGGGUGCAGUGUCAUUGACGCUGCAGUACAGAAUUCCGGCA",6
9,"R41 (ssRNA, [none]) RNA: GGGAGACCGGAAUUCUGGGGGCAGUGUCAUUGACGCUGCCGUACAGAAUUCCGGCA",2

# Same assay, conditions: tags: none stated; heparin-Sepharose and Superose 6 purified; chain copies: oligomer (tetramer likely; about 4 per RBC6, 6-8 per full-length RRE at 50 mM KCl) stated; label: 32P uniform; stem-loop with G,G bulge
row,Molecule,binding signal [% RNA bound at 10 nM rev]
1,R36 (dG59-A61) (ssRNA) RNA: GGGAGACCGGAAUUCUGGGCGCAGUGUCAUUGACGCUGCGCAGAAUUCCGGCA,4

# Same assay, conditions: tags: none stated; heparin-Sepharose and Superose 6 purified; chain copies: oligomer (tetramer likely; about 4 per RBC6, 6-8 per full-length RRE at 50 mM KCl) stated; label: 32P uniform; stem-loop with altered bubble
row,Molecule,binding signal [% RNA bound at 10 nM rev]
1,R34 (dG35-G36) (ssRNA) RNA: GGGAGACCGGAAUUCUGCGCAGUGUCAUUGACGCUGCGGUACAGAAUUCCGGC,3
2,R37 (ssRNA) RNA: GGGAGACCGGAAUUCUAAACGCAGUGUCAUUGACGCUGCGGUAUAGAAUUCCGGCA,5

# Molecular target: T1, HIV-1 Rev
# Test: competition; D1/2 vs labelled RRE RNA, 17 nM rev
# Conditions: tags: none stated; heparin-Sepharose and Superose 6 purified; chain copies: oligomer (tetramer likely; about 4 per RBC6, 6-8 per full-length RRE at 50 mM KCl) stated; label: 32P uniform; stem-loop with altered bubble
row,Molecule,IC50 [nM]
1,R34 (dG35-G36) (ssRNA) RNA: GGGAGACCGGAAUUCUGCGCAGUGUCAUUGACGCUGCGGUACAGAAUUCCGGC,> 250
